In the RNAGym collection of RNA variant scans (doi:10.7554/elife.80360) one finds self-cleavage data, which are given here for 167 variants.

Sequences and labels used below:
B1: HDV Ribozyme (parent)
chain: GGCCGGCAUGGUCCCAGCCUCCUCGCUGGCGCCGGCUGGGCAACAUUCCGAGGGGACCGUCCCCUCGGUAAUGGCGAAUGGGACCCA

The variants in the series derive from B1. Put plainly: self-cleavage, relative activity (ratio to wild type); higher = more cleavage; co-transcriptional.
In the case of C32A G52C, the self-cleavage turned out to be 0.0831.
Next, C30G C86A: 0.241; C30U A87U: 0.636.
The same measure for C30U A87G: 0.699; for C32G A70C: 0.38; for C32A C62G: 0.0489.
Next, C32A C62U: 0.341; C32A A83G: 0.152; G31C U69G: 0.394.
G31C U69C: the self-cleavage came out at 0.534.
Next, G31C G74A: 0.0573; C32G G76A: 0.271.
Next, C32G G80A: 0.0764; G31U G74U: 0.136; G31U G80C: 0.0449.
The same measure for C30A G55A: 0.472; for G31A G68C: 0.518.
Take C30U C66U: the self-cleavage was 0.544.
Next, G31U G52U: 0.492; C30A G52U: 0.532.
The same measure for G31U A56U: 0.489; for G31C G40A: 0.406; for C30U U47C: 0.401.
Next, C32A C61A: 0.162.
Consider C32A C61U, for which the self-cleavage is 0.201.
The same measure for C32A C61G: 0.248; for C30U C63A: 0.466.
Next, C30U C63U: 0.581; C30G C41A: 0.0361; C30G G82C: 0.0326.
Take G31A C61A: the self-cleavage worked out at 0.554.
As for G31A G53A, the self-cleavage is 0.487.
Next, G31A A87U: 0.442; C32G G40U: 0.0791; G31U A70C: 0.161.
Next, C30A U60G: 0.502; C32A A51U: 0.256; C30A G74C: 0.158.
Next, C30U C41A: 0.543; G31A G40U: 0.112.
Turning to G31A G40A, the self-cleavage worked out at 0.233.
Next, G31U G76C: 0.479.
The same measure for G31C C48G: 0.227; for C32G C41G: 0.0665.
The same measure for C32A G68C: 0.113; for C32A G68U: 0.0906.
Turning to C30G A43G, the self-cleavage came out at 0.
As for C30A U47G, the self-cleavage stood at 0.682.
The same measure for C30A U47A: 0.486; for G31U G67A: 0.369.
Next, C30U A43U: 0.0652; G31C C44G: 0.135; C32A C66U: 0.315.
Take G31C C61G: the self-cleavage came out at 0.259.
The same measure for C32A A77U: 0.108; for C32A A77G: 0.0426.
As to C32G C85A, the self-cleavage worked out at 0.0378.
The same measure for C32G C85G: 0.111; for C32G C85U: 0.0692.
In the case of G31A G55C, the self-cleavage turned out to be 0.475.
Turning to G31U G39C, the self-cleavage is 0.166.
The same measure for G31U G39A: 0.0361; for G31U U47C: 0.383; for G31U A51C: 0.462.
The same measure for C32A G35U: 0.157; for C30G G54A: 0.0811.
Turning to C30G U60G, the self-cleavage stood at 0.0386.
With C30A C66A, the self-cleavage turned out to be 0.582.
Next, C30A G34U: 0.155.
Next, G31C G81A: 0.0791.
Next, C32A G67U: 0.232; C30U U46C: 0.0723.
C30U U46A: the self-cleavage worked out at 0.369.
The same measure for C32G C57U: 0.0702; for C30G C36U: 0.0443; for C30G C36A: 0.0554.
In the case of C30G C36G, the self-cleavage was determined as 0.0594.
Regarding C30G G67A, the self-cleavage came to 0.0287.
The same measure for C30G G67U: 0.112; for C32A U47C: 0.0462; for C30G A42G: 0.0415.
With G31C C33U, the self-cleavage came to 0.123.
As to G31U C48U, the self-cleavage is 0.619.
The same measure for G31U C48G: 0.543.
C30U G82A: the self-cleavage worked out at 0.229.
For C32A C33U, the self-cleavage was found to be 0.0779.
C30A U65G: the self-cleavage is 0.441.
Next, C30A U65C: 0.644.
Regarding C30A U65A, the self-cleavage turned out to be 0.341.
Next, C32G G59C: 0.0923; G31C G38U: 0.123; C30G A77U: 0.0665.
With C30U G35C, the self-cleavage amounted to 0.185.
Next, C30G C61U: 0.026.
Turning to C30U C62U, the self-cleavage is 0.562.
Turning to G31C G82U, the self-cleavage was 0.128.
Take G31A U60G: the self-cleavage amounted to 0.642.
Consider G31A U60A, for which the self-cleavage is 0.49.
G31A A78G: the self-cleavage came to 0.0978.
The same measure for G31C G73C: 0.155.
On to G31C C66U, for which the self-cleavage is 0.292.
Next, G31C C66G: 0.443.
For the variant C30U C86G, the self-cleavage was found to be 0.733.
The same measure for C30U C86U: 0.795; for C30U C86A: 0.923; for C30G G68C: 0.0906.
Consider G31C C84U, for which the self-cleavage worked out at 0.295.
Next, G31U C49G: 0.231.
Next, G31U C49U: 0.302; G31A G50C: 0.521.
The same measure for C30U C49U: 0.891.
As for C30A U72G, the self-cleavage was found to be 0.185.
As for C32G A83U, the self-cleavage was found to be 0.166.
G31U C62A: the self-cleavage is 0.602.
The same measure for C32G G73U: 0.0692; for C32G G73A: 0.0615.
The same measure for G31A G67A: 0.44.
Turning to C32A G82A, the self-cleavage stood at 0.0361.
Next, C30A U37G: 0; G31C C36U: 0.0978; G31U C75A: 0.0665.
Next, C30A G59C: 0.58; G31C C49U: 0.339; G31C C49G: 0.253.
For G31A A56U, the self-cleavage stood at 0.482.
G31C C41G: the self-cleavage turned out to be 0.269.
Turning to G31U C66A, the self-cleavage amounted to 0.45.
For G31U C66U, the self-cleavage was found to be 0.437.
Next, C30G C48G: 0.119; C30A G73U: 0.111; G31C C63U: 0.369.
On to G31C C63A, for which the self-cleavage stood at 0.344.
Next, C30U A71C: 0.404.
Next, G31C C86G: 0.188; C30U C85G: 0.0978; G31U C57A: 0.464.
Next, C32A A42C: 0.162; C32A A42G: 0.0519.
As for G31A G35U, the self-cleavage stood at 0.102.
With G31A G35C, the self-cleavage came to 0.
The same measure for C30G U79A: 0.156; for C30G U79C: 0.0496; for C30U C36U: 0.244.
The same measure for C30A G53U: 0.443.
The same measure for C30U A42C: 0.0282; for C30U A42G: 0.156.
As for G31C U46A, the self-cleavage came out at 0.256.
Next, G31C U46G: 0.266.
Take C32G C86U: the self-cleavage worked out at 0.203.
Regarding C32A A87G, the self-cleavage worked out at 0.165.
The same measure for C32A A87U: 0.183; for G31A U69A: 0.564; for G31A U69G: 0.284.
Next, C30A C86A: 0.591; G31A C84G: 0.119; G31C A43C: 0.
The same measure for G31C A43U: 0.135; for G31C A45U: 0.0437.
On to C30G C85G, for which the self-cleavage was found to be 0.0405.
On to C30G C85U, for which the self-cleavage amounted to 0.0302.
The same measure for C30U C75U: 0.157; for G31C G39U: 0.277; for G31C G39C: 0.0475.
As for G31U A78G, the self-cleavage was 0.0811.
As for G31U A78C, the self-cleavage came to 0.0297.
Next, G31U A78U: 0.0744.
As for G31A G52A, the self-cleavage was 0.46.
